Measured values from paper PMC6189457.

Test: confocal FL-CD19-GFP, WGA Pearson colocalisation, Nalm6 and 697
Details: glycan changed form; control: DMSO

B1: CD19: swainsonine (protein)
parent chain: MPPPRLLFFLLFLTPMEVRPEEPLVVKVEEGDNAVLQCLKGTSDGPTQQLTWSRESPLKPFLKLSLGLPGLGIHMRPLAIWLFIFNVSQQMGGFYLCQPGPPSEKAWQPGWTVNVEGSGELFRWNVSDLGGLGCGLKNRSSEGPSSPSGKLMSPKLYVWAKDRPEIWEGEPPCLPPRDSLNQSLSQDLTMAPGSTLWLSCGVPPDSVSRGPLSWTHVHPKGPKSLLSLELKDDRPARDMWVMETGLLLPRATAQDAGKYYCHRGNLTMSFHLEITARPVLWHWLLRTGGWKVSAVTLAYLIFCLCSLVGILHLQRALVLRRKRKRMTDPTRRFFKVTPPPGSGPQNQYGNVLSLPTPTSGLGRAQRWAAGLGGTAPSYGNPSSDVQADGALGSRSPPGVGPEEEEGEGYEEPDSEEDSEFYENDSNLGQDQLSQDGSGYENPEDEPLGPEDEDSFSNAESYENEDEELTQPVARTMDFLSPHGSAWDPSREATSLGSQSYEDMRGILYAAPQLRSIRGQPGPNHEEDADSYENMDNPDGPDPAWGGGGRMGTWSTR
In the case of B1, the localisation_or_trafficking is reported as “no change”.
